According to US11505586B2, “Interaction of Draxin and γ-netrins” (Max-Planck-Gesellschaft zur Foerderung der Wissenschaften …, priority 2014, dated 2022):

Columns and labels:
Netrin1a/DCC = assay: AVEXIS based competition assay; format: binding, zebrafish; conditions: for inhibition of binding of Netrin1a to DCC: inhibitor added together with DCC prey, Netrin1a bait
Excerpt: (§1) The procedure of the competition assay is based on the AVEXIS assay. Netrin1 receptors were used as prey proteins together with 6×His ? tagged purified Draxin (potential antagonist), and probed against Netrin1a bait proteins. The indicated concentrations of the potential inhibitors have been added together with prey proteins. For the competition tests with purified Draxin the concentration of the Netrin receptor prey proteins has been adjusted to an identical threshold binding concentration.
We determined the concentration of ECD-hFc fusion proteins in tissue culture supernatants by ELISA, using the human IgG Fc fragment (Calbiochem) as a reference. Dilution series of the ECD-hFc containing supernatants have been incubated over night at 4° C. on 96 well Maxisorp plates (Nunc). After 3 PBS washes the plates were blocked with 0.5% BSA containing PBS (1 h). After additional 2 PBS washes and 1-hour incubation with an anti-human IgG (Fc specific) antibody fused to alkaline phosphatase (SIGMA) the plates have been washed 3 times with PBS. The detection has been carried out by addition of 50 μl/well of the AP substrate p-nitrophenylphosphate (SouthernBiotech). The substrate turnover has been determined by measuring the absorbance at 405 nm.
(§2) By using an AVEXIS-based competition assay (FIG. 6 A) we tested whether the binding of DraxinA to Netrin1a has an influence on Netrins ability to bind to Netrin receptors. First we confirmed that we reliably detected the binding of Netrin1a to Netrin receptors of the DCC/Neo1 and Unc5 families with the AVEXIS method. We also tested whether Draxin is able to bind to the corresponding Netrin receptors. […] This has also been confirmed by a recent publication (Haddick et al. 2014). In the competition assay the extracellular domains (ECDs) of Netrin receptors have been used as prey proteins together with purified full length DraxinA and probed for binding against Netrin1a bait proteins. […] The inhibition is specific for DraxinA.

Netrin1a/Unc5b = assay: AVEXIS based competition assay; format: binding, zebrafish; conditions: purified protein with Unc5b prey, Netrin1a bait
Excerpt: as §1, §2

Netrin1a/Neo1 = assay: AVEXIS based competition assay; format: binding, zebrafish; conditions: purified protein with Neo1 prey, Netrin1a bait
Excerpt: as §1, §2

RGMc/Neo1 = assay: AVEXIS based competition assay; format: binding, zebrafish
Netrin1a = assay: AVEXIS extracellular protein-protein interaction screen; format: binding, zebrafish
Excerpt: To detect extracellular protein-protein interactions in a high-throughput manner we used the AVEXIS assay as described in Bushell et al. (Bushell et al., 2008) with minor modifications.
In brief: A zebrafish protein library enriched for mainly in neuronal tissues expressed secreted proteins and extracellular domains of cell surface proteins has been assembled. The library consists of prey and bait proteins. Preys are composed of the extracellular domain (ECD) of interest followed by a CD4 tag (rat Cd4d3+4) and a pentamerization domain derived from the rat Comp protein followed by β-lactamase. For the bait proteins the ECDs are fused to a CD4 tag and a biotinylation peptide. […] The proteins in the supernatants have been quantified and normalized.
The bait proteins have been immobilized on streptavidin coated 96 well microtiter plates (one bait/well) and incubated for 1 hour at room temperature. […] Then the absorbance at 486 nm of each well has been measured using a μQuant spectrophotometer (BIO-TEK Instruments, INC). […]
In the primary screen interactions were ‘called’ if the absorbance (at 486 nm) of a well after 1 h of incubation was ≥0.1 and 3 Sigma above the standard deviations of the mean of all wells. All interactions detected in the primary screen have been retested in a validation screen by using independently produced batches of proteins.

Netrin-1 = biological target: T1, Netrin-1 (Homo sapiens, UniProt O95631); assay: AVEXIS pairwise binding screen, human proteins; conditions: both bait/prey orientations
T1 construct: made in house; host or cells: HEK293-6E (general AVEXIS method)
Excerpt: (§3) AVEXIS was used to test pairwise binding events in both bait/prey orientations between human DRAXIN, the derived 21 amino acid peptide, human Netrin family members, and two representative Netrin receptors (DCC, UNC5B). The Matn4-bait served as an internal prey-protein control and was used for normalization of the A486 nm values; conditioned medium (CM) serves as negative control; n=3.
(§4) To determine the binding specificity of DRAXIN/Netrin interactions, we carried out a pairwise binding screen between human DRAXIN and human Netrin family members. Except Netrin-5, we included all human Netrin family members consisting of two secreted γ-Netrins (Netrin-1 and Netrin-3) and one secreted (Netrin-4) and two GPI-linked β-Netrins (Netrin-G1 and Netrin-G2) in our binding study. Human DRAXIN and a 21 amino acid Netrin binding fragment derived thereof (SEQ ID NO.: 1) bound to Netrin-1 and Netrin-3 but not to human β-Netrin family members (FIG. 13).

Netrin-3 = biological target: T2, Netrin-3 (Homo sapiens, UniProt O00634); assay: AVEXIS pairwise binding screen, human proteins; conditions: both bait/prey orientations
T2 construct: made in house; host or cells: HEK293-6E (general AVEXIS method)
Excerpt: as §3, §4

[1] = test system: human β-Netrin family members; assay: AVEXIS pairwise binding screen, human proteins; conditions: Netrin-4, Netrin-G1, Netrin-G2
Excerpt: as §3, §4

endogenous netrins = assay: In situ detection of Draxin binding partners with affinity probe; design: species or system zebrafish
Description: A netrin binding fragment of Draxin (aa209-284) fused to the Fc region of human IgG (Draxinaa209-284-hFc) has been expressed in HEK293-6E cells and used as an affinity probe to detect binding partners in zebrafish embryos. Draxinaa209-284-hFc in situ staining has been done in whole mount wild type and netrin-1 knockdown zebrafish embryos. At 46 hpf wild type zebrafish embryos were dechorionated by for 2 hours at RT incubation in 0.1 mg/ml Pronase. At 48 hpf embryos were prefixed for 10 min at RT in 4% (w/v) paraformaldehyde (PFA) containing 1% Triton X-100 (v/v). After 3 washes (each 20 min) with PBS+1% Triton X-100 the embryos were blocked for 4 h at RT in PBS containing 0.2% BSA and 0.5% Triton X-100. Overnight incubation at 4° C. with HEK293-6E supernatant containing the Draxin-hFc fusion protein was followed by 3 short washes (10 min each) with PBST. Subsequently the embryos were post-fixed in 4% PFA (4 h at RT or overnight at 4° C.), rinsed shortly 3 times with PBST and incubated for 4 h at RT with an Alexa Fluor 568 goat anti human IgG antibody (Invitrogen, 1:250 dilution). After 3 washes (30 min each) in PBST the embryos were mounted in glycerol for visualization using a Zeiss LSM 510 microscope. […]

T2 sequence (O00634 28-580): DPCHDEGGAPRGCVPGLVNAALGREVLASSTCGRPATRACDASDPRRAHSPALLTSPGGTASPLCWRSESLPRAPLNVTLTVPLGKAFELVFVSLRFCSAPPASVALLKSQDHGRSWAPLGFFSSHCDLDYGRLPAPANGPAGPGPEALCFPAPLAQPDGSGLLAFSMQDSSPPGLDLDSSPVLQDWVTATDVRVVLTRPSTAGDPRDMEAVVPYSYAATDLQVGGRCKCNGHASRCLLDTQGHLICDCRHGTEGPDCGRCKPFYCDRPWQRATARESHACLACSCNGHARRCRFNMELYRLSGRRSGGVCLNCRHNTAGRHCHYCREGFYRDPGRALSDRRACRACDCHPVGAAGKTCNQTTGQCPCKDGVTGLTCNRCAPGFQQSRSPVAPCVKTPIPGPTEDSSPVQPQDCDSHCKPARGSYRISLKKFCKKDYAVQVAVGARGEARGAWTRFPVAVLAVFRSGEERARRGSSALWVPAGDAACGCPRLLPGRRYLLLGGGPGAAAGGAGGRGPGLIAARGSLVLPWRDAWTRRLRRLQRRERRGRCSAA

B1: DraxinAΔaa231-252-hFc: DraxinA-hFc where the 21aa Netrin1 binding motif has been deleted (protein)
chain: SEISSDNFKQSLTPSTTTSKEHPETGLTGGRQQKRHWSGKERDSAGLFSQRHMDRLEDDGTSMEGLSPVRLEMGPGDTMKAEVHGEVRASAQMRQGSHPAEGELNRKGRRHSHRLLAEHRKHGGKKDKGRGKGDLSDPEPELDSLLKDLNAFEDGLNTSPPNYNSVPLNEVPSPLSPILVTTAIKGHPPTLPPASTKPQKSSQGRTQADSWPSNKRKDKRRSKNKSNGNTTTEAGIVEPCDHHLDCLSGSCCDLREFECKPHNRGLNNKCFDDCMCEEGLRCYAKFHRKRRVTRRRGRCVDPESVNSNQGAFITV
modifications: left off: a dimerising Fc or GST
Netrin1a/DCC
  inhibition of binding of Netrin1a to DCC: not able to compete

B2: DraxinA: full-length zebrafish Draxin isoform A (SEQ ID NO.: 5), 360 amino acids; purified as His-tagged CD4d3+4 fusion (protein)
chain: MVAPGLCQLFILLLITLSHTLHSSEISSDNFKQSLTPSTTTSKEHPETGLTGGRQQKRHWSGKERDSAGLFSQRHMDRLEDDGTSMEGLSPVRLEMGPGDTMKAEVHGEVRASAQMRQGSHPAEGELNRKGRRHSHRLLAEHRKHGGKKDKGRGKGDLSDPEPELDSLLKDLNAFEDGLNTSPPNYNSVPLNEVPSPLSPILVTTAIKGHPPTLPPASTKPQKSSQGRTQGEVMPTLDMTLFDWTDYEDMKPADSWPSNKRKDKRRSKNKSNGNTTTEAGIVEPCDHHLDCLSGSCCDLREFECKPHNRGLNNKCFDDCMCEEGLRCYAKFHRKRRVTRRRGRCVDPESVNSNQGAFITV
modifications: His-tagged CD4d3+4 fusion; Danio rerio
notes: purified as His-tagged CD4d3+4 fusion
Netrin1a/DCC; Netrin1a-baits preincubated with DCC preys, then purified DraxinA added
  disruption of already formed DCC/Netrin1a complexes: can be disrupted
Netrin1a/DCC
  inhibition of binding of Netrin1a to DCC: concentration dependent inhibition
Netrin1a/Unc5b
  inhibition of binding of Netrin1a to Unc5b: concentration dependent inhibition
Netrin1a/Neo1
  inhibition of binding of Netrin1a to Neo1: concentration dependent inhibition
RGMc/Neo1
  inhibition of binding of RGMc to Neo1: not able to block
Netrin1a; pentameric prey, library of 171 bait proteins
  binding of prey protein to Netrin1a bait: specifically bound

B3: Human DRAXIN: human Draxin (SEQ ID NO.: 4) expressed as AVEXIS bait/prey protein (protein, listed as Homo sapiens)
chain: MAGPAIHTAPMLFLVLLLPLELSLAGALAPGTPARNLPENHIDLPGPALWTPQASHHRRRGPGKKEWGPGLPSQAQDGAVVTATRQASRLPEAEGLLPEQSPAGLLQDKDLLLGLALPYPEKENRPPGWERTRKRSREHKRRRDRLRLHQGRALVRGPSSLMKKAELSEAQVLDAAMEESSTSLAPTMFFLTTFEAAPATEESLILPVTSLRPQQAQPRSDGEVMPTLDMALFDWTDYEDLKPDGWPSAKKKEKHRGKLSSDGNETSPAEGEPCDHHQDCLPGTCCDLREHLCTPHNRGLNNKCFDDCMCVEGLRCYAKFHRNRRVTRRKGRCVEPETANGDQGSFINV
modifications: AVEXIS bait/prey tags
Netrin1a; cross-species, both bait-prey orientations
  binding of human Draxin to zebrafish Netrin1a: able to bind
Netrin-1
  binding to Netrin-1: bound
Netrin-3
  binding to Netrin-3: bound
[1]
  binding to human β-Netrin family members: not

B4: Draxinaa209-284-hFc: netrin binding fragment of Draxin (aa209-284) fused to the Fc region of human IgG, affinity probe (protein)
chain: GHPPTLPPASTKPQKSSQGRTQGEVMPTLDMTLFDWTDYEDMKPADSWPSNKRKDKRRSKNKSNGNTTTEAGIVEP
modifications: left off: a dimerising Fc or GST
Endogenous netrins; 48 hpf netrin1a and netrin1b double-knockdown embryos
  in situ signal of bound affinity probe: barely detectable
Endogenous netrins; 48 hpf wild type embryos
  in situ signal of bound affinity probe: only detect a signal in close proximity to the floor plate

B5: DraxinA-hFc: full-length DraxinA fused to human Fc (protein)
chain: SEISSDNFKQSLTPSTTTSKEHPETGLTGGRQQKRHWSGKERDSAGLFSQRHMDRLEDDGTSMEGLSPVRLEMGPGDTMKAEVHGEVRASAQMRQGSHPAEGELNRKGRRHSHRLLAEHRKHGGKKDKGRGKGDLSDPEPELDSLLKDLNAFEDGLNTSPPNYNSVPLNEVPSPLSPILVTTAIKGHPPTLPPASTKPQKSSQGRTQGEVMPTLDMTLFDWTDYEDMKPADSWPSNKRKDKRRSKNKSNGNTTTEAGIVEPCDHHLDCLSGSCCDLREFECKPHNRGLNNKCFDDCMCEEGLRCYAKFHRKRRVTRRRGRCVDPESVNSNQGAFITV
modifications: left off: a dimerising Fc or GST
Netrin1a/DCC
  inhibition of binding of Netrin1a to DCC: able to outcompete
